pKd: −log10 of the molar value.
How the values were obtained:
[1] = molecular target: MS2 bacteriophage coat protein (Bacteriophage MS2) (UniProt P03612); details: likely CITED; stated Kd for cognate site
[2] = molecular target: hnRNP A1/A2 (Homo sapiens) (UniProt P09651+P22626); details: apparent Kd, likely CITED; stated for A1 and A2; excess TS10 abolishes ABS stimulation in HeLa extract
Chain of hnRNP A1/A2 (Homo sapiens) (P09651 whole entry, chain 1 of 2): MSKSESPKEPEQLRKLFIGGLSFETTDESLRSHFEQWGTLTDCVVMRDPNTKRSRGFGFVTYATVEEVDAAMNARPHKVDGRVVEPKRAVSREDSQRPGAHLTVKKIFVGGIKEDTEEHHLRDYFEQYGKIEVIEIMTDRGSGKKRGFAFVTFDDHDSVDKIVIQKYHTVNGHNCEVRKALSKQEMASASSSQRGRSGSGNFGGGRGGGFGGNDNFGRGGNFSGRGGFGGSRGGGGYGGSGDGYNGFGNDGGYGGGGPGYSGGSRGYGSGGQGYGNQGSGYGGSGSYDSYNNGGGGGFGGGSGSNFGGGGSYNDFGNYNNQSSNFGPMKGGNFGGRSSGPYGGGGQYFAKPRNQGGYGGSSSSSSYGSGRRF
Chain of hnRNP A1/A2 (Homo sapiens) (P22626 whole entry, chain 2 of 2): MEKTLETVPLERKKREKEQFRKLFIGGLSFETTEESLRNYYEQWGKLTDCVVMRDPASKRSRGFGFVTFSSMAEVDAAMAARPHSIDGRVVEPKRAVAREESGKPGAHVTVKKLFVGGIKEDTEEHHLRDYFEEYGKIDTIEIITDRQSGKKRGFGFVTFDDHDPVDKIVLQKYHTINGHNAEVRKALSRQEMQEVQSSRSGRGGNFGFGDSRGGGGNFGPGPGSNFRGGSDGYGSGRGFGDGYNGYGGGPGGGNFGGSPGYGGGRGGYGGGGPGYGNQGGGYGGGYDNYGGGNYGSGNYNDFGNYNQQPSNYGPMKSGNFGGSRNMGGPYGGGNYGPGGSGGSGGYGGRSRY

Chain of MS2 bacteriophage coat protein (Bacteriophage MS2) (P03612 2-130): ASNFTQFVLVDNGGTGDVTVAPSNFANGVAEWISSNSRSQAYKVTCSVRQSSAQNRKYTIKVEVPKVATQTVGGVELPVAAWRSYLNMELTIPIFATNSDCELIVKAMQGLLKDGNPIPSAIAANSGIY

Row | Substance | pKd [1] | pKd [2]
1 | MS2 stem-loop binding site in C5 pre-mRNA (position -26) | 9.00 | 
2 | TS10 telomeric DNA oligo (60 nt, nine A1 binding sites) |  | > 8.30

From patent US20060058253
